# Target: exosome core (S. cerevisiae, UniProt P46948 1-246; Q05636 1-305; Q12277 1-265; P25359 1-394; P48240 1-250; P53256 …)
# Assay: tandem affinity purification + ion-exchange chromatography
binder,measurement,value
"Rrp44 (enzyme, S. cerevisiae, UniProt Q08162 1-1001, looked up) MSVPAIAPRRKRLADGLSVTQKVFVRSRNGGATKIVREHYLRSDIPCLSRSCTKCPQIVVPDAQNELPKFILSDSPLELSAPIGKHYVVLDTNVVLQAIDLLENPNCFFDVIVPQIVLDEVRNKSYPVYTRLRTLCRDSDDHKRFIVFHNEFSEHTFVERLPNETINDRNDRAIRKTCQWYSEHLKPYDINVVLVTNDRLNREAATKEVESNIITKSLVQYIELLPNADDIRDSIPQMDSFDKDLERDTFSDFTFPEYYSTARVMGGLKNGVLYQGNIQISEYNFLEGSVSLPRFSKPVLIVGQKNLNRAFNGDQVIVELLPQSEWKAPSSIVLDSEHFDVNDNPDIEAGDDDDNNESSSNTTVISDKQRRLLAKDAMIAQRSKKIQPTAKVVYIQRRSWRQYVGQLAPSSVDPQSSSTQNVFVILMDKCLPKVRIRTRRAAELLDKRIVISIDSWPTTHKYPLGHFVRDLGTIESAQAETEALLLEHDVEYRPFSKKVLECLPAEGHDWKAPTKLDDPEAVSKDPLLTKRKDLRDKLICSIDPPGCVDIDDALHAKKLPNGNWEVGVHIADVTHFVKPGTALDAEGAARGTSVYLVDKRIDMLPMLLGTDLCSLKPYVDRFAFSVIWELDDSANIVNVNFMKSVIRSREAFSYEQAQLRIDDKTQNDELTMGMRALLKLSVKLKQKRLEAGALNLASPEVKVHMDSETSDPNEVEIKKLLATNSLVEEFMLLANISVARKIYDAFPQTAMLRRHAAPPSTNFEILNEMLNTRKNMSISLESSKALADSLDRCVDPEDPYFNTLVRIMSTRCMMAAQYFYSGAYSYPDFRHYGLAVDIYTHFTSPIRRYCDVVAHRQLAGAIGYEPLSLTHRDKNKMDMICRNINRKHRNAQFAGRASIEYYVGQVMRNNESTETGYVIKVFNNGIVVLVPKFGVEGLIRLDNLTEDPNSAAFDEVEYKLTFVPTNSDKPRDVYVFDKVEVQVRSVMDPITSKRKAELLLK",stoichiometry N,1 molar ratio

# Source: paper PMC3976988 (Nature structural & molecular biology, 2013)
